Data from PMC10371346, “Modeling of ACE2 and antibodies bound to SARS-CoV-2 provides insights into infectivity and immune evasion” (JCI Insight, 2023).

Target: T1, recombinant His-tagged wild-type SARS-CoV-2 Spike trimer (SARS-CoV-2, Wuhan-Hu-1 (wild-type), UniProt P0DTC2)
T1 construct: also called wild-type Spike trimer; wild-type Spike
Assay: flow cytometry on cells; Cas1-CAR-NK92MI cells displaying the scFv-CAR incubated with recombinant His-tagged Spike trimer in PBS with 0.5 mM CaCl2 and 0.9 mM MgCl2, 1 hour at 4°C under gentle agitation; washed, stained with PE anti-His and Alexa Fluor 647 anti-human IgG (H+L); parental NK92MI as negative and 293T-hACE2 as positive control
Settings: one partner purified

B1: REGN10933 (casirivimab) single chain variable fragment displayed as a chimeric antigen receptor on NK92MI cells (scFv, V domains shown)
VH: QVQLVESGGGLVKPGGSLRLSCAASGFTFSDYYMSWIRQAPGKGLEWVSYITYSGSTIYYADSVKGRFTISRDNAKSSLYLQMNSLRAEDTAVYYCARDRGTTMVPFDYWGQGTLVTVSS
VL: DIQMTQSPSSLSASVGDRVTITCQASQDITNYLNWYQQKPGKAPKLLIYAASNLETGVPSRFSGSGSGTDFTFTISGLQPEDIATYYCQQYDNLPLTFGGGTKVEIK
notes: scFv domain of casirivimab (REGN10933); the variable domains are those of REGN10933 in PDB 6XDG; rest of the chimeric antigen receptor (hinge, transmembrane and signalling parts); also called Cas1-CAR; Cas1
- binding result: binds
